The target in test [1] is T1, human CXCR4 (human, UniProt P61073-2 2-356). The test is described as follows: competition binding vs [125I]-238D2, HEK293T-CXCR4 membranes.
Test [2] deals with T1, human CXCR4. Briefly: competition binding vs [125I]-238D4, HEK293T-CXCR4 membranes.
Test [3] deals with T1, human CXCR4. Briefly: competition binding vs [125I]-CXCL12, HEK293T-CXCR4 membranes.
Test [4] addresses constitutively active CXCR4 mutant N119A (UniProt P61073 1-352). Briefly: cell-based or functional assay.
Test [5] addresses T1, human CXCR4. The test is described as follows: competition binding vs [125I]-CXCL12, HEK293T-CXCR4 membranes.
For test [6], the target named is T1, human CXCR4. The test is described as follows: competition with [125I]-CXCL12, membranes of HEK293T cells expressing CXCR4.
For test [7], the target named is T1, human CXCR4. The test is described as follows: competition with [125I]-238D2, membranes of HEK293T cells expressing CXCR4.
Test [8] addresses T1, human CXCR4. Briefly: cell-based or functional assay.
Test [9] deals with T1, human CXCR4. The test is described as follows: cell-based or functional assay. This is another data set of the same source.
The target of test [10] is T1, human CXCR4. The test is described as follows: competition with [125I]-238D4, membranes of HEK293T cells expressing CXCR4.
For test [11], the target named is T2, CXCR3 (UniProt P49682 1-368).
T2 construct: whole, on cells; also called chemokine receptor CXCR3
T2 sequence (looked up): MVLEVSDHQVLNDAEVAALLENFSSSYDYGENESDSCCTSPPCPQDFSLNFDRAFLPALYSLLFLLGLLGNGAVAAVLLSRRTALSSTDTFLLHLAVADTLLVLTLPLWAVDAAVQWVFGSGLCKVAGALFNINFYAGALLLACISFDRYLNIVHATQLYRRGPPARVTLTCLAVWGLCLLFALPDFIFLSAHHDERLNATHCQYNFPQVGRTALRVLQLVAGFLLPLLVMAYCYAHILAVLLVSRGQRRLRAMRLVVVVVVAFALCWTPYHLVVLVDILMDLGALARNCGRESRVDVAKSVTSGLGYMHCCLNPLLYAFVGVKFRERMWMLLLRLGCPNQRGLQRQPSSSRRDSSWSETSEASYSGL
The test is described as follows: total binding of [125I]-238D4 to membranes of HEK293T cells expressing CXCR4 or CXCR3, without (-) and with 3 µM AMD3100.

In test [12] the target is T1, human CXCR4. Briefly: competition binding vs [125I]-CXCL12, HEK293T-CXCR4 membranes; purified Nanobody up to 0.5 µM, tracer [125I]-CXCL12.
Test [13] addresses T1, human CXCR4. The test is described as follows: competition binding vs [125I]-238D2, HEK293T-CXCR4 membranes; purified Nanobody up to 0.5 µM, tracer [125I]-238D2.
Test [14] concerns the target T1, human CXCR4. Briefly: competition binding vs [125I]-238D4, HEK293T-CXCR4 membranes; purified Nanobody up to 0.5 µM, tracer [125I]-238D4.
Test [15] concerns the target T1, human CXCR4. The test is described as follows: periplasm fraction (1:10), inhibition of [125I]-CXCL12 binding, HEK293T-CXCR4 membranes; - = 0-29%, + = 30-69%, ++ = 70-100%; periplasma fraction in the clone screen, tracer [125I]-CXCL12; 30-69% inhibition.
Test [16] concerns the target T2, CXCR3. Briefly: total binding of [125I]-238D2 to membranes of HEK293T cells expressing CXCR4 or CXCR3, without (-) and with 3 µM AMD3100.
The target of test [17] is T1, human CXCR4. Briefly: competition binding vs [125I]-CXCL12, HEK293T-CXCR4 membranes. The source holds these as a separate data set.

T1 sequence (P61073 other isoform, or with tags, fused parts or gaps): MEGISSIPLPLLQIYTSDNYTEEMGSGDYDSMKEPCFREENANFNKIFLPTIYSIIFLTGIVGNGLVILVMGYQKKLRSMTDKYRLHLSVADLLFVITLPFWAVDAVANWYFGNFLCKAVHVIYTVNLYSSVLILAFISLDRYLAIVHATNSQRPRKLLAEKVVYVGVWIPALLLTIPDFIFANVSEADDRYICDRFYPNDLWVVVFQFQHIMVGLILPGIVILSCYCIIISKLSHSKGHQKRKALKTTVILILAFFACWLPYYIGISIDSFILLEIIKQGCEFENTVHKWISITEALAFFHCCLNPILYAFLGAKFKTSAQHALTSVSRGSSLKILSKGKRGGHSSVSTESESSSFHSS
Sequence of constitutively active CXCR4 mutant N119A (P61073 whole entry N119A): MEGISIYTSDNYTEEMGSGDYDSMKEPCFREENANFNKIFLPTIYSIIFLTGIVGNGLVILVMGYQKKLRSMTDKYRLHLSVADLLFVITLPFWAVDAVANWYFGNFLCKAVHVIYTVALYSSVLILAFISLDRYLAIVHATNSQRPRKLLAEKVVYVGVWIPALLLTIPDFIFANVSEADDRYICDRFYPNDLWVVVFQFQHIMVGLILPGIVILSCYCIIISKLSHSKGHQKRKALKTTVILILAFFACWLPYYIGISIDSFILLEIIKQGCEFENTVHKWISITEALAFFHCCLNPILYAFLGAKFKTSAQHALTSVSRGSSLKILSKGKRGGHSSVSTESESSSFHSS

In the case of monoclonal antibody 12G5, the maximal displacement with human CXCR4 [1] came to 89%; with human CXCR4 [2], 90%; in the test with human CXCR4 [3], 54%. The negative logarithm of the Ki (pKi) is 9.65 in the test with human CXCR4 [1], 9.31 with human CXCR4 [2] and 9.19 in the test with human CXCR4 [3].

B1: 238D2-20GS-238D4 (VHH)
chain: EVQLVESGGGLVQTGGSLRLSCAASGFTFSSYAMSWVRQAPGKGLEWVSGIKSSGDSTRYAGSVKGRFTISRDNAKNMLYLQMYSLKPEDTAVYYCAKSRVSRTGLYTYDNRGQGTQVTVSSGGGGSGGGGSGGGGSGGGGSEVQLMESGGGLVQAGGSLRLSCAASGRTFNNYAMGWFRRAPGKEREFVAAITRSGVRSGVSAIYGDSVKDRFTISRDNAKNTLYLQMNSLKPEDTAVYTCAASAIGSGALRRFEYDYSGQGTQVTVSS
On to B1, for which the “reduction of the constitutively increased basal inositol phosphate accumulation, HEK293T-CXCR4 (N119A)” value in test [4] was determined as 65%.

B2: 238D2-15GS-238D4 (VHH)
chain: EVQLVESGGGLVQTGGSLRLSCAASGFTFSSYAMSWVRQAPGKGLEWVSGIKSSGDSTRYAGSVKGRFTISRDNAKNMLYLQMYSLKPEDTAVYYCAKSRVSRTGLYTYDNRGQGTQVTVSSGGGGSGGGGSGGGGSEVQLMESGGGLVQAGGSLRLSCAASGRTFNNYAMGWFRRAPGKEREFVAAITRSGVRSGVSAIYGDSVKDRFTISRDNAKNTLYLQMNSLKPEDTAVYTCAASAIGSGALRRFEYDYSGQGTQVTVSS
In the case of B2, the “reduction of the constitutively increased basal inositol phosphate accumulation, HEK293T-CXCR4 (N119A)” value in test [4] stood at 64%.

B3: Nanobody 238D4 (VHH)
VHH: EVQLMESGGGLVQAGGSLRLSCAASGRTFNNYAMGWFRRAPGKEREFVAAITRSGVRSGVSAIYGDSVKDRFTISRDNAKNTLYLQMNSLKPEDTAVYTCAASAIGSGALRRFEYDYSGQGTQVTVSS
notes: Monovalent llama VHH; also called 238G3; 238D4, G3
Regarding B3, the pKi with human CXCR4 [1] was determined as 8.8; with human CXCR4 [5] it was 8.22; in the test with human CXCR4 [2], 8.55. For the same molecule, the maximal displacement with human CXCR4 [5] was found to be 99%. For the same molecule, the “IC50 (read off the curve)” value with human CXCR4 [6] was roughly 10 nM; with human CXCR4 [7], roughly 3 nM; with human CXCR4 [10], roughly 4 nM. Besides, the “CRE activation, HEK293T-CXCR4-CREbgal/0.01-100 nM CXCL12: pKi or pIC50 (pKB from the Schild plot by the text)” value with human CXCR4 [8] was determined as 7.7. The “Chemotaxis, Jurkat/0.3 nM CXCL12: pKi or pIC50” value with human CXCR4 [8] came to 8.31. In the test with human CXCR4 [8], the “IP accumulation, HEK293T-CXCR4-Gαqi5/30 nM CXCL12: pKi or pIC50” value was determined as 8.39. In addition, in the test with human CXCR4 [9], the “migration of Jurkat cells towards 0.3 nM CXCL12 (ChemoTx): IC50 (read off the curve)” value is roughly 8 nM. The binding result with CXCR3 [11] was “no binding (tested: 3 nM)”. For the same molecule, the “reduction of the constitutively increased basal inositol phosphate accumulation, HEK293T-CXCR4 (N119A)” value in test [4] stood at 49%.

B4: Nanobody 237D2 (VHH)
VHH: EVQLVESGGGLVQPGGSLRLSCAASGFTFDDYAMSWVRQAPGKGLEWVSAISWNGGSTDYADSVKGRFTISRDNAKNTLYLQMNSLKSEDTAEYYCARDQGPFYSGTYYYTRQYGYRGQGTQVTVSS
notes: Monovalent VHH; also called 237B6, A5, D2, D3, E4, F4, G2, G4, xH5, 237F1, C5, G1
As for B4, the pKi in the test with human CXCR4 [12], with human CXCR4 [13] and with human CXCR4 [14] was less than 6.3 throughout.

B5: Nanobody 237D1 (VHH)
VHH: EVQLVESGGGLAQPGGPLRLTCEASGVIYSVNDMGWYRQAPGKQRELVAVITSGGGTNYVDSVKGRFTISGDNRKKTVYLQMNSLKPEDTAVYYCSIYYSSGISTLRSWGQGTQVTVSS
notes: Monovalent VHH
For B5, the pKi in the test with human CXCR4 [12], with human CXCR4 [13] and with human CXCR4 [14] was less than 6.3 in each case. Besides, the “percent inhibition of specific [125I]-CXCL12 binding” value (“percent inhibition of specific” below) in the test with human CXCR4 [15] lay in the range of 30 to 69%.

B6: Nanobody 238C5 (VHH)
VHH: EVQLMESGGGLVQAGGSLRLACAASGFTFEDYAIGWFRKAPGKEREGVSCISGSDGSTTYADSVKGRFTISTDNAKNTVYLEMNSLKPEDTAVYYCAQQYGVGGRVVCPGPYEYDVWGQGTQVTVSS
notes: Monovalent VHH; also called 238C5, G2, xH5, 238C3, D6, E6
For B6, the pKi with human CXCR4 [1] was less than 7; with human CXCR4 [5] it was less than 6.3; in the test with human CXCR4 [2], less than 7. The same molecule yielded a maximal displacement with human CXCR4 [5] of 0%.

B7: Nanobody 238D2 (VHH)
VHH: EVQLVESGGGLVQTGGSLRLSCAASGFTFSSYAMSWVRQAPGKGLEWVSGIKSSGDSTRYAGSVKGRFTISRDNAKNMLYLQMYSLKPEDTAVYYCAKSRVSRTGLYTYDNRGQGTQVTVSS
notes: Monovalent llama VHH; Tested as phage, as periplasm fraction and purified; also called 238C1; 238C1, D2
Consider B7, for which, in the test with CXCR3 [16], the binding result is on record as “no binding (tested: 3 nM)”.

B8: Nanobody 237A6 (VHH)
VHH: EVQLVESGGGLVQAGGSLRLSCAASGSIFSLNAMGWYRQAPGKQRELVAGITSSTSTYYADSVKGRFTISRDNTKNTVYLQMNSLKPEDTAVYYCNVDCPDYYSDYECPLEDRGQGTQVTVSS
notes: Monovalent VHH
As for B8, the pKi with human CXCR4 [12], in the test with human CXCR4 [13] and with human CXCR4 [14] was less than 6.3 in each case. In addition, the “percent inhibition of specific” value in the test with human CXCR4 [15] was 30 to 69%.

B9: Nanobody 237G7 (VHH)
VHH: EVQLVESGGGLVQPGGSLRLSCAASSFIGNYHAIVWLRQAPGKELEGVSCITSRDSITYYASFVKGRFTISRDDAKNTVYLQMNNLKPEDTAVYYCAVBTSMTCPTLIVRFNYRGQGTQVTVSS
notes: Monovalent VHH
Take B9: the negative-log Ki (pKi) with human CXCR4 [12], with human CXCR4 [13] and in the test with human CXCR4 [14] was less than 6.3 throughout. The “percent inhibition of specific” value with human CXCR4 [15] lay in the range of 30 to 69%.

B10: 238D4-20GS-238D4 (VHH)
chain: EVQLMESGGGLVQAGGSLRLSCAASGRTFNNYAMGWFRRAPGKEREFVAAITRSGVRSGVSAIYGDSVKDRFTISRDNAKNTLYLQMNSLKPEDTAVYTCAASAIGSGALRRFEYDYSGQGTQVTVSSGGGGSGGGGSGGGGSGGGGSEVQLMESGGGLVQAGGSLRLSCAASGRTFNNYAMGWFRRAPGKEREFVAAITRSGVRSGVSAIYGDSVKDRFTISRDNAKNTLYLQMNSLKPEDTAVYTCAASAIGSGALRRFEYDYSGQGTQVTVSS
notes: Bivalent Nanobody, 20-residue GS linker; also called L13
As for B10, in the test with human CXCR4 [17], the “Rel. potency (relative to monovalent 238D4)” value turned out to be 4.4 fold and the negative logarithm of the Ki (pKi) worked out at 8.85.

The pKi is the Ki on a negative log10 scale, so that one unit is a factor of ten. A lower pKi goes with a large Ki.

The record behind these values is patent US20110206660A1 (Ablynx, published 2011).
